pKd: −log10 of the molar value.
Legend:
[1] = test system: SavR (Staphylococcus aureus (NCTC8325?)); experiment: ITC; details: EMSA: 20 mM Tris-HCl pH 8.0, 100 mM NaCl, 25 C, 20 min; footprinting: same plus 5 mM MgCl2, 1 mM CaCl2, 25 C 30 min; ITC: 20 mM Tris-HCl pH 8.0, 100 mM NaCl …
[2] = target: SavR;SavS (Staphylococcus aureus (NCTC8325?);Staphylococcus aureus (NCTC8325?)) (UniProt Q2FVF8); experiment: ITC; details: EMSA: 20 mM Tris-HCl pH 8.0, 100 mM NaCl, 25 C, 20 min; footprinting: same plus 5 mM MgCl2, 1 mM CaCl2, 25 C 30 min; ITC: 20 mM Tris-HCl pH 8.0, 100 mM NaCl …

Sequence “TACGCTAATTATAGCGTACGCACTTGAGTACGTCAA (double strand) [36-bp savRS operator]” has a pKd [1] of 5.04 and a pKd [2] of 7.57.

From publication PMC5913840
